3 molecules from PMC6265464 can be followed below.

Data set [1] deals with full-length 3× Flag-tagged R192F hFEN1 (human) (UniProt P39748). The data set can be described thus: co-IP.
Data set [2] concerns the target hFEN1 D181A/R192F (1-333) (Homo sapiens, UniProt P39748 1-333, D181A;R192F). The data set can be described thus: X-ray crystallography.

Chain of full-length 3× Flag-tagged R192F hFEN1 (human) (P39748 whole entry R192F): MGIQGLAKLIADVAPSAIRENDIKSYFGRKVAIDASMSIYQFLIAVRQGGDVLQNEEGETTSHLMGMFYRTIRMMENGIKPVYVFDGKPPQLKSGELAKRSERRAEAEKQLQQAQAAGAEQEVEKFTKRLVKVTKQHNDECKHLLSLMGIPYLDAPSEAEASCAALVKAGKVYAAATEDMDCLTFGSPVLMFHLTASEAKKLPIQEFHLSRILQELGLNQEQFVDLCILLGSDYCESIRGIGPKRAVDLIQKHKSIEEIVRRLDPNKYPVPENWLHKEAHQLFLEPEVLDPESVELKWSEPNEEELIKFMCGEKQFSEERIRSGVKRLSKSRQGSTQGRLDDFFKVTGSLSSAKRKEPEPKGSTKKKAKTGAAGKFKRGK
Chain of hFEN1 D181A/R192F (1-333) (P39748 1-333 D181A/R192F): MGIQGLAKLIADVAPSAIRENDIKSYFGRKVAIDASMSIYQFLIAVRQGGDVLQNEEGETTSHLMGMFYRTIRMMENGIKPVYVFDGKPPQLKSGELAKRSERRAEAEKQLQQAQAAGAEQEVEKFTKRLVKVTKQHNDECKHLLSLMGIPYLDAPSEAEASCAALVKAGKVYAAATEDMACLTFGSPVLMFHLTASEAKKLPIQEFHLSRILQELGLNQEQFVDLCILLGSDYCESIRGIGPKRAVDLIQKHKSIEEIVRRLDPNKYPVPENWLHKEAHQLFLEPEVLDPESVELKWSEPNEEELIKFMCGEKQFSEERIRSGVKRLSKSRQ

“Cyclin E (from UniProt P24864 1-410) (natural protein)” had a percent lower interaction than with wild-type hFEN1 in data set [1] of 70%. In data set [1], “CDK2 (from UniProt P24941 1-298) (enzyme)” gave a percent lower interaction than with wild-type hFEN1 of 40%.

B1: double-flap DNA (D181A/R192F crystal) (dsDNA)
DNA 1: CCTCTGCCTCAAGACGGG
DNA 2: GCCCGTCC
DNA 3: ACTTTGAGGCAGAG
Regarding B1, the binding result in data set [2] is “binds”.
